Drawing on patent US20220041718A1 (AUTOLUS, published 2022), this text covers Kd for 28 molecules.

Assay [1] has as its target T1, Recombinant purified TRBC1 (human, UniProt P01850 1-129, limits assumed).
T1 construct: Construct not described (may be a soluble TCR carrying TRBC1); also called TCR beta constant region 1; soluble recombinant biotinylated TRBC1
Nature of the assay: SPR, IgG captured on anti-human Fc, TRBC1 as analyte. An excerpt: (§1) A series S CM5 sensor chip was immobilised via amine coupling, with an anti-human Fc capture antibody to a density of 9000-10000 RU, using a Biacore T200 instrument. HBS-P+ buffer was used as running buffer in all experimental conditions. The test anti-TRBC2 antibodies (Table 1) were captured on flow cells 2, 3 and 4 to a density of 100-300 RU. Recombinant purified TRBC1 or TRBC2 at known concentrations were used as the ‘analyte’ and injected over the respective flow cells with 150s contact time and 300s dissociation at 30 μl/minute of flow rate. In each experiment, flow cell 1 was unmodified and used for reference subtraction. A ‘0 concentration’ sensorgram of buffer alone was used as a double reference subtraction to factor for drift. Data were fit to a 1:1 Langmuir binding model. Since a capture system was used, a local Rₘₐₓ parameter was used for the data fitting in each case.
On the technique in general: In SPR one partner is held on a chip, and binding of the other changes the refractive index at the surface.

The target in assay [2] is T2, Recombinant purified TRBC2 (human, UniProt A0A5B9 1-129, limits assumed).
T2 construct: Construct not described (may be a soluble TCR carrying TRBC2); also called TCR beta constant region 2; soluble recombinant biotinylated TRBC2
Description: SPR, IgG captured on anti-human Fc, TRBC2 as analyte.
From the text: as §1

Residue numbers refer to the chain shown, from its start. Names and notes keep the numbering of the source.

T1 sequence (P01850 1-129 limits assumed): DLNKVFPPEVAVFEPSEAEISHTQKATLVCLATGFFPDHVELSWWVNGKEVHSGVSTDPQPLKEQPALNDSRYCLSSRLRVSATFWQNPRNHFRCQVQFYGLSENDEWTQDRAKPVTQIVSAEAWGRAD
T2 sequence (A0A5B9 1-129 limits assumed): as the sequence (P01850 1-129 limits assumed) above, with N3K, K4N, E9K, F36Y counted along it

B1: hJovi-1 variant IgG, VH T28K, Y32F, A100N; VL unmutated (antibody, V domains shown)
VH: QVQLVQSGAEVKKPGASVKVSCKASGYKFTGFVMHWVRQAPGQGLEWMGFINPYNDDIQSNERFRGRVTMTRDTSISTAYMELSRLRSDDTAVYYCARGNGYNFDGAYRFFDFWGQGTMVTVSS
VL: DIVMTQSPLSLPVTPGEPASISCRSSQRLVHSNGNTYLHWYLQKPGQSPRLLIYRVSNRFPGVPDRFSGSGSGTDFTLKISRVEAEDVGVYYCSQSTHVPYTFGQGTKLEIK
notes: IgG format; also called anti-TRBC2 triple mutant
As for B1, the Kd in assay [1] was determined as 2730 nM; in assay [2] it was 432 nM.

B2: hJovi-1 variant IgG, VH T28K, Y32F, A100N, N103A; VL unmutated (antibody, V domains shown)
VH: B1 VH with N103A
VL: B1 VL
notes: IgG format
As for B2, the Kd is 3390 nM in assay [1] and 714 nM in assay [2].

B3: hJovi-1 variant IgG, VH N103F, T28K, Y32F, A100N; VL N35M (antibody, V domains shown)
VH: B1 VH with N103F
VL: B1 VL with N35M
notes: IgG format
As to B3, the Kd in assay [1] was 459 nM; in assay [2], 130 nM.

B4: hJovi-1 variant IgG, VH T28K, G31R, Y32F, A100N; VL unmutated (antibody, V domains shown)
VH: B1 VH with G31R
VL: B1 VL
notes: IgG format
With B4, the results for the equilibrium dissociation constant (Kd) in assay [1] and in assay [2] were 17400 nM and 4950 nM, respectively.

B5: hJovi-1 variant IgG, VH N103F, T28K, Y32F, A100N; VL N35Y (antibody, V domains shown)
VH: B1 VH with N103F
VL: B1 VL with N35Y
notes: IgG format
In the case of B5, the Kd worked out at 1860 nM in assay [1] and 501 nM in assay [2].

B6: hJovi-1 variant IgG, VH N103S, T28K, Y32F, A100N; VL N35K (antibody, V domains shown)
VH: B1 VH with N103S
VL: B1 VL with N35K
notes: IgG format
Consider B6, for which the dissociation constant (Kd) in assay [1] came out at 3680 nM; in assay [2], 851 nM.

B7: hJovi-1 variant IgG, VH N103W, T28K, Y32F, A100N; VL N35K (antibody, V domains shown)
VH: B1 VH with N103W
VL: B1 VL with N35K
notes: IgG format
In the case of B7, the equilibrium dissociation constant (Kd) in assay [1] amounted to 1680 nM; in assay [2], 417 nM.

B8: hJovi-1 variant IgG, VH N103L, T28K, Y32F, A100N; VL N35Y (antibody, V domains shown)
VH: B1 VH with N103L
VL: B1 VL with N35Y
notes: IgG format
B8: the dissociation constant Kd in assay [1] turned out to be 1930 nM; in assay [2], 480 nM.

B9: hJovi-1 variant IgG, VH N103L, T28K, Y32F, A100N; VL N35K (antibody, V domains shown)
VH: B1 VH with N103L
VL: B1 VL with N35K
notes: IgG format
Consider B9, for which the Kd in assay [1] came out at 707 nM; in assay [2], 187 nM.

B10: hJovi-1 variant IgG, VH N103L, T28K, Y32F, A100N; VL N35M (antibody, V domains shown)
VH: B1 VH with N103L
VL: B1 VL with N35M
notes: IgG format
B10: the Kd in assay [1] came out at 1500 nM; in assay [2], 364 nM.

B11: hJovi-1 variant IgG, VH T28K, Y32F, A100N, N103E; VL unmutated (antibody, V domains shown)
VH: B1 VH with N103E
VL: B1 VL
notes: IgG format
Turning to B11, the dissociation constant Kd in assay [1] is 2930 nM; in assay [2], 1300 nM.

B12: hJovi-1 variant IgG, VH N103M, T28K, Y32F, A100N; VL N35F (antibody, V domains shown)
VH: B1 VH with N103M
VL: B1 VL with N35F
notes: IgG format
For the molecule B12, the Kd is 459 nM in assay [1] and 130 nM in assay [2].

B13: hJovi-1 variant IgG, VH N103S, T28K, Y32F, A100N; VL N35M (antibody, V domains shown)
VH: B1 VH with N103S
VL: B1 VL with N35M
notes: IgG format
In the case of B13, the Kd in assay [1] came to 8220 nM; in assay [2], 1830 nM.

B14: hJovi-1 variant IgG, VH N103W, T28K, Y32F, A100N; VL N35M (antibody, V domains shown)
VH: B1 VH with N103W
VL: B1 VL with N35M
notes: IgG format
Regarding B14, the dissociation constant Kd in assay [1] amounted to 2280 nM; in assay [2], 611 nM.

B15: hJovi-1 variant IgG, VH T28K Y32F A100N; VL R55K (antibody, V domains shown)
VH: B1 VH
VL: B1 VL with R55K
notes: IgG format
For B15, the equilibrium dissociation constant (Kd) was 962 nM in assay [1] and 165 nM in assay [2].

B16: hJovi-1 variant IgG, VH N103S, T28K, Y32F, A100N; VL N35R (antibody, V domains shown)
VH: B1 VH with N103S
VL: B1 VL with N35R
notes: IgG format
As to B16, the dissociation constant Kd in assay [1] was found to be 3930 nM; in assay [2] it was 917 nM.

B17: hJovi-1 variant IgG, VH N103E, T28K, Y32F, A100N; VL N35M (antibody, V domains shown)
VH: B1 VH with N103E
VL: B1 VL with N35M
notes: IgG format
Take B17: the Kd in assay [1] came to 5830 nM; in assay [2] it was 2130 nM.

B18: hJovi-1 variant IgG, VH G31S, T28K, Y32F, A100N; VL unmutated (antibody, V domains shown)
VH: B1 VH with G31S
VL: B1 VL
notes: IgG format
B18: the equilibrium dissociation constant (Kd) in assay [1] was found to be 3680 nM; in assay [2] it was 1170 nM.

B19: hJovi-1 variant IgG, VH G31R, Y32F, A100N; VL unmutated (antibody, V domains shown)
VH: B1 VH with K28T, G31R
VL: B1 VL
notes: IgG format
As for B19, the equilibrium dissociation constant (Kd) in assay [1] was found to be 3140 nM; in assay [2] it was 1360 nM.

B20: hJovi-1 variant IgG, VH N103F, T28K, Y32F, A100N; VL N35F (antibody, V domains shown)
VH: B1 VH with N103F
VL: B1 VL with N35F
notes: IgG format
Turning to B20, the figures for the Kd in assay [1] and in assay [2] were 1610 nM and 459 nM, respectively.

B21: hJovi-1 variant IgG, VH N103L, T28K, Y32F, A100N; VL N35F (antibody, V domains shown)
VH: B1 VH with N103L
VL: B1 VL with N35F
notes: IgG format
On to B21, for which the dissociation constant Kd in assay [1] amounted to 1380 nM; in assay [2], 369 nM.

B22: hJovi-1 variant IgG, VH N103W, T28K, Y32F, A100N; VL N35R (antibody, V domains shown)
VH: B1 VH with N103W
VL: B1 VL with N35R
notes: IgG format
In the case of B22, the Kd was found to be 1730 nM in assay [1] and 390 nM in assay [2].

B23: hJovi-1 variant IgG, VH T28K, Y32F, A100N, N103F; VL N35K (antibody, V domains shown)
VH: B1 VH with N103F
VL: B1 VL with N35K
notes: IgG format
Turning to B23, the dissociation constant Kd is 881 nM in assay [1] and 294 nM in assay [2].

B24: hJovi-1 variant IgG, VH N103S, T28K, Y32F, A100N; VL N35F (antibody, V domains shown)
VH: B1 VH with N103S
VL: B1 VL with N35F
notes: IgG format
For the molecule B24, the Kd in assay [1] stood at 6580 nM; in assay [2], 1560 nM.

B25: hJovi-1 variant IgG, VH N103W, T28K, Y32F, A100N; VL N35F (antibody, V domains shown)
VH: B1 VH with N103W
VL: B1 VL with N35F
notes: IgG format
As for B25, the Kd amounted to 1680 nM in assay [1] and 510 nM in assay [2].

B26: hJovi-1 variant IgG, VH N103S, T28K, Y32F, A100N; VL N35Y (antibody, V domains shown)
VH: B1 VH with N103S
VL: B1 VL with N35Y
notes: IgG format
B26: the dissociation constant Kd in assay [1] was 7830 nM; in assay [2], 1880 nM.

B27: hJovi-1 variant IgG, VH T28K, Y32F, A100N, A107S; VL unmutated (antibody, V domains shown)
VH: B1 VH with A107S
VL: B1 VL
notes: IgG format
Regarding B27, the dissociation constant (Kd) in assay [1] is 3590 nM; in assay [2] it was 1160 nM.

B28: hJovi-1 variant IgG, VH N103L, T28K, Y32F, A100N; VL N35R (antibody, V domains shown)
VH: B1 VH with N103L
VL: B1 VL with N35R
notes: IgG format
With B28, the dissociation constant (Kd) in assay [1] came out at 810 nM; in assay [2], 201 nM.

The Kd is a measure of binding affinity in units of concentration.
